Key:
thebaine = assay: Bioconversion of thebaine (N-demethylation to northebaine) by S. cerevisiae expressing cytochrome P450s and CPRs, LC-MS; conditions: for support of N-demethylase activity of P450_DN15259_c0_g1_i7_A by CPR (northebaine): 0.1 M potassium phosphate buffer pH 7, 72 h; for activity towards thebaine, converting it to northebaine: 0.5 mM thebaine, co-expressed with CPR_DN5866_c0_g1_i1_Cd9, CPR_DN10898_c0_g1_i1_1A or Cel_CPR_co (at least one of the tested CPRs)
oripavine = assay: Bioconversion of oripavine (N-demethylation to nororipavine) by S. cerevisiae expressing cytochrome P450s and CPRs, LC-MS; conditions: for nororipavine production when oripavine was administered: co-expressed with CPR_DN5866_c0_g1_i1_Cd9, CPR_DN10898_c0_g1_i1_1A or Cel_CPR_co

B1: CPR_DN5866_c0_g1_Cd9: native cytochrome P450 reductase clone from T. piriforme, day 9 cDNA (pEV31725) (protein)
chain: MAQSSPALLDSLDIVFLGTIGLGTIAWFARRQIAERIFGSKDDANKNVGNGNAPTAPKRERNFVKVMQEQGRKVIFFYGSQTGTAEDYASRLAKECSQKYGVSCMTADIELYDLTYLDTVPEDFLVFFIMATYGEGEPTDNAVDFWEQLTEEEPQFSEGDTLGNLRYVVFGLGNKTYEHYNEVARRMDKLLTKLGAKRIGERGEGDDDASLEEDFLAWQDSMWPAFCDALGVDESNGSSGPRQAMYAVEELEGQEAVYLGELGEKPKEGVKVVYDAKRPYNAPLVSQDLFKNTDRHCLHIDIDVSDSNLSYQTGDHIAIWPTNSDDEVARLASLLGLTDKLDTSVMVKAIDSTASKQYPFPVPATYRSIFRHYLDICAPASRQTLMSLVEYAPTEASKEALRLLSKDKDEYRLKVGEAVRNLGEVLELAAGADARPGLFSTVPFDLIVESVSRLQPRYYSISSSAKESPKVIAVTAVTLTYNPDPTPERTVYGVNTNYLWQIHAAKHNVNDGQRYPTYDLAGPRNALQGAKVPVHIRRSQFKLPRNPTVPVIMVGPGTGVAPFRGFVRERAAQKTDGKPVGPTLLFFGCRNSQQDFLYKDEWPELFATLGDESRIVTAFSRETPQKVYVQHRLQENGEELWNLLQKGAYIYVCGDAKNMARDVNQTFVNFAIEFGGQTEEKAHDYVKNLRNSGRYQEDVWS
modifications: Thamnostylum piriforme
thebaine; 0.1 mM thebaine, 30° C.
  support of N-demethylase activity of P450_DN15259_c0_g1_i7_A by CPR (northebaine): yielded more northebaine

B2: P450_DN12791_c0_g1_C: native cytochrome P450 clone from Thamnostylum piriforme (plasmid pEV31522) (protein)
chain: MAILQNLVLQSDQRHLGVVTAAVFLSAYALYRHESKKELGNECPTVPYTNPMFGSTDEYRKNPAAFVEKWSAALGPVFRVHIFGRMQTVVSGRYVREVLFNDNFSFVEGIRTRFDLRLLTGIPNSHLNDKDVREVVVKSLTAQMKKYTPRAVHYLSVGLQEALGDLKDPRTLDNLFLTVQNMVAKASASIFVGEELCNNIELVDTFKHVTSDIGSEIRLDNTWLEFFKTINQIRMWYVGKHSPRVTKHRRQLIQAMAPEIDRRLQGLAGNDPSWTRPEDILQEIMENYPSPSTVPADIYTYYANWMIVLIFASVHTTTEHATIVLYRLLQQPELIDELLQEQKEALGQGTVFTGEVIRKLVKLDSVCRESLRIKNEYFGLPHRNMSHENISLSNGVVIKPGDNVMLNVWTNHHDSDLQKDVHGNHDKFEPFRYVNADRPATKIGDDYLIFGEGKHACPGRWFALQEIKTIVSVLIRDYTLTPCGPIVFPSGTSTGIPSGEVTIQRKSEV
modifications: Thamnostylum piriforme
oripavine; 0.5 mM oripavine, pH 7, co-expressed with Cel_CPR_co, 72 h
  nororipavine titers: highest nororipavine titers
oripavine; 0.5 mM oripavine, pH 7, with CPRs from C. elegans, G. fujikuroi and S. cerevisiae, 72 h
  oripavine N-demethylation (nororipavine), screening of T. piriforme P450 candidates: identified as an oripavine N-demethylase

B3: Ar_ORZ22410_co: codon-optimized putative cytochrome P450 A0A1X2IUG5 from Absidia repens (protein, listed as Absidia repens)
chain: MNKLFPVGTSNKKKAVLLSLGATVALICRAIYRIYYVPRSLRHIPSVGYFRLIRSILRREDATTRARTVYGPAIKKGNGIYLANFPITWSVFVSSPIAAKSVLMKTDNFPKSMEIFHALGKENPVVRFFGIDNVAIVNGEKWKKQRKVMNPAFHRAMPVQMFGRLMLKGFKNIEKQDYQVPILDFFQRLTLDALGIAGFGFDFHSVDDPESIWTKTYENVRLGLRSPFSFLFPSMDWLLKYIIPGRKELDKSVDKLNALLMSMAQERRLQVRASIDDNVPDSEKDLLTLMLEAELRGEGTASDEQLRSNLAVFFLAGHETTANTMSFCLYNLAMNKEVQSKARQEVLTVLGDEPVDILPQIDELRQMPYIDMVLKENLRRFGPASMLIARKSQEDFDLNGVFIPKNTPVVVETHALHHNPDVWKNPEQFDPERFAPGGEHETCHEGMAWLPFSSGSRGCLGMNFSLAEQRTFLVMLLRKYEWELPEDSIHRNGVKIQNFQNAAPESLEIKFSSRY
oripavine; 0.5 mM oripavine, pH 7, 72 h
  nororipavine production when oripavine was administered: capable of producing nororipavine
thebaine; pH 7, 72 h
  activity towards thebaine, converting it to northebaine: displayed activity towards thebaine

B4: LCOR_09548_co: codon-optimized putative cytochrome P450 A0A068S8J3 from Lichtheimia corymbifera (protein, listed as Lichtheimia corymbifera)
chain: MSSLNILSLLDNKHINAFFDNPSRAQSGIIAGSVAIVSLCAAYSLGSRLRGSNNGVPLVPYTFPIIGSTKEYQADPQAFIEKWTAKLGPVFRVHLFGRIHTVVSDRYVREVFLNNDFDFLKGTGKRFDTLLLTDTTLEDVDIEVFRTVVMKHLTKEMKHYTPRVVEHLTAGGDEKLGDATEPKELVHLFPLLQHMVAKASASIFVGTELAADDAVVETCKNIAIDIGSELGPSSYIMDAFPSLARLRMWYIGKYGKAINKHRQHLLHALGPVIDKRLAAAEKGGDWDRPQDILQDIIETINLTLDNPKRHILPVKWLLALFFASIHTTSENSTIVLYRIMQNPEIIDVLLEEQNEILEKHYGTNIDYSDTTKLFTGEVIKEMVKLDSVCREAMRSRNSYLELPHTYVGKSRITLSCGAVIEPGHDVLINMWGNHRDAKIQRDTIGDHHDFKPFRFVGLDRQSTKIGDDFLMFGQGRHACPGRWFAIQEIKTIVSVLIRYYKLTPKGPITFPTHPRMPMPTGEVIIQRRQE
modifications: codon-optimized
oripavine; 0.5 mM oripavine, pH 7, 72 h
  nororipavine production when oripavine was administered: capable of producing nororipavine

B5: P450_DN15259_c0_g1_i7_A: native cytochrome P450 clone from Thamnostylum piriforme (plasmid pEV31541) (protein)
chain: MDNKAILRQAVYSYRYHIGIAAAVAIVCQQIYSRVFRVPKNLRHIPAISYWSQMKALLKKEAITPRTKRLVYPLLSKANGLYLNRMPFDWTVYVANPMIAKTVLFKPEFATKMSLIGSFSDDSAVLQFVGKDNIAVSNGHQWKKQRKIMNPAFHRSMPVALFASLMPKVFCMIDETQENGDSVGAIQLMQALTLEALGKAVFGFDFGGLDDKNSVWVKTYNEVFKAFTDFTVFLPRLNAFLRRVSPPHRSRHREMLKLIGLLDEMVDKKRQALLDAKNKSVEKVPEHEKDLLTLMLEAEMDGEGVWEKEELRHNIGILFVAGHDTTANSLAFAVYNLAVNKDVQDKARKEIIDLLGDEPKDVAPTLDDCKHMDYIDMIIKETLRMNAPANDLLARIASEDLELGGVLIPKGTMVSVDFHALHLHPDLWEDSERFNPQRFQDNGEHSKHEGVTWVPFSGGSRQCIGINFSMMEQRVALSTLLRKYEWELPADSIHRNGLVMDQPFSFAPSSLKIKFKKRY
modifications: Thamnostylum piriforme
oripavine; detected only when feeding 0.5 mM oripavine, pH 7, 72 h, with Cel_CPR_co, CPR_DN5866_c0_g1_Cd9 or CPR_DN10898_c0_g1_1A
  oripavine N-demethylation (nororipavine): able to N-demethylate oripavine
oripavine; thebaine or oripavine fed, pH 7, 72 h
  nororipavine titers lower than those of northebaine: 20 fold
thebaine; 0.1 mM thebaine, non-buffered SC-His-Leu-Ura, with CPRs from C. elegans, G. fujikuroi and S. cerevisiae, 72 h, 30° C.
  thebaine N-demethylation (northebaine), screening of T. piriforme P450 candidates: identified as a thebaine N-demethylase
thebaine; 0.1 vs 0.5 mM thebaine, pH 7, 72 h, with Cel_CPR_co, CPR_DN5866_c0_g1_Cd9 or CPR_DN10898_c0_g1_1A
  increase in northebaine titers on increasing thebaine concentration to 0.5 mM: 50%

B6: LCOR_01865_co: codon-optimized putative cytochrome P450 A0A068RKI7 from Lichtheimia corymbifera (protein, listed as Lichtheimia corymbifera)
chain: MTEIKDHIYRYRHYIGVAAAVLLVCQQVYHRIFRIPKNLRHLPAIPYGKQLKALQSQENLISRTQRLVFPLLPKAHGVYLNRMPFQWTIYVADPEIARIVFFKPEFANKTSSVLDSIDQNTTLIEFVGNDNVSIVNGHHWKDQRKIMNPAFHRATPVGMFGSLMPKVFRLVEEQPTVPVLELMQKLTLDALGKSVFGFDFGGLDDPDSVWVKTYRLLFDGFTNVIPLVFPRLDGLYRYFSAKRRAQHDAVYKLIDLLDGVADKKRSMLQDDSNSHNDVPEHEKDLLQLMLEAELRGEGNWTKKELRHNMAIFFVAGHDTTSHALTFCLYLLAMNQDIQKKAREEILRVLGDEPKDVFPTLEDCKKLDYLDMVIKESMRIYPPANDILARDVHEDLNVKGIFIPKGAMVSVDIQALHHRPDLWHEPEKFNPDRFLPGGEHDSHEGIAYAPFSSGARQCIALKFSIMQQRVVLAMLLRKFEWELPKESKHKDGIQFEIPFNLAPKDLELIFHKRY
modifications: codon-optimized
oripavine; 0.5 mM oripavine, pH 7, 72 h
  nororipavine production when oripavine was administered: capable of producing nororipavine
thebaine; pH 7, 72 h
  activity towards thebaine, converting it to northebaine: displayed activity towards thebaine

B7: CPR_DN10898_c0_g1_1A: native cytochrome P450 reductase clone from T. piriforme (pEV31730) (protein)
chain: MSKKPTTFAISPLDLLLLGTLGIGALLYITRKLRAAPPPAAGDAARPSDKAPSNKPERNFVKLMEQQKRRVIFFYGSQTGTAEDYASRLAKESSQKYGVSSMAADIELYDLSYLDTVPEDKLVVFVMATYGEGEPTDNAVDFWETLTDEAPMFSLGEELAPLRNLNYIVFGLGNKTYEHYNEVARVLDKRLAALGATRHGVRGEGDDDASLEEDFLAWQEDMWPAFCAALNVDESNAQAGPRQAMYGVKELEGHDENGLFLGELGEWLQPEQLQKQTAVHDAKHPYLAPIAASRDLFSHAADRHCLHLEVDIASSNLTYQTGDHIAIWPTNNDVEVLRLATVLGLADKLDTAIMVKALDSAASKKYPFPVPTTYRAAFKHYLDICSPASRQTLISLVDYAPTASSKDALHKLATDKDAYKTQVSEAARNLAEVLELCQDDEGTTAAPGFFSTVPFDLIVESVSRLQPRYYSISSSSLTSPKSVAVTAVTLSYQPSTTKSRTVYGVNTNYLWRIHAPHDASVPAYDLDGPRNTLQGKKVPVHIRRSTFKLPRNTKLPVIMVGPGTGVAPFRGFIHDRVHQKQSGKEVGPTVLFYGCRHSKQDFLYAEEWPALFEALGEGSQLITAFSRESAQKVYVQHRLKEHGEQMWKYIEQGAYIYVCGDAKNMARDVQQTFIEFAQALGNKTESQAQDYVKNLRNTGRYQEDVWS
modifications: Thamnostylum piriforme
thebaine; 0.1 mM thebaine, 30° C.
  support of N-demethylase activity of P450_DN15259_c0_g1_i7_A by CPR (northebaine): yielded more northebaine

— US11781164B2, “Demethylation of reticuline and derivatives thereof with fungal cytochrome P450” (priority 2017, dated 2023)
